In PMC11928522:

Columns and labels:
[1] = biological target: T1, LPA66-BFP (Arabidopsis thaliana, UniProt Q9FI80 35-515); assay: EMSA after sedimentation
T1 sequence: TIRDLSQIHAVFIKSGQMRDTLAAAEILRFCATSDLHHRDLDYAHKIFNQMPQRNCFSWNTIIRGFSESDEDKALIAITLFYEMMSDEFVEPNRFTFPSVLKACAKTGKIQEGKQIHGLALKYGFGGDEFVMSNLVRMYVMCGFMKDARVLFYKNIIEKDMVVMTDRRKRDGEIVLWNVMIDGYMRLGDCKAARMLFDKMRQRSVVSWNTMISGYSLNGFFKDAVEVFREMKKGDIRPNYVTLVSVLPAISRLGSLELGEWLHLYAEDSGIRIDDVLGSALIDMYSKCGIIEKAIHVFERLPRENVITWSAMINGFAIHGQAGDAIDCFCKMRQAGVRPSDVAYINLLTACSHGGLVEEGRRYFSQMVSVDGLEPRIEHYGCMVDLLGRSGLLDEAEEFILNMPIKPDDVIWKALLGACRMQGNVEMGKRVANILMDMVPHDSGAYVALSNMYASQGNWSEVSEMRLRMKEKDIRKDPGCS

[2] = biological target: T2, GFP-MORF8 (condensates) (Arabidopsis thaliana, UniProt Q9LKA5 1-395); assay: condensate partitioning
T2 sequence: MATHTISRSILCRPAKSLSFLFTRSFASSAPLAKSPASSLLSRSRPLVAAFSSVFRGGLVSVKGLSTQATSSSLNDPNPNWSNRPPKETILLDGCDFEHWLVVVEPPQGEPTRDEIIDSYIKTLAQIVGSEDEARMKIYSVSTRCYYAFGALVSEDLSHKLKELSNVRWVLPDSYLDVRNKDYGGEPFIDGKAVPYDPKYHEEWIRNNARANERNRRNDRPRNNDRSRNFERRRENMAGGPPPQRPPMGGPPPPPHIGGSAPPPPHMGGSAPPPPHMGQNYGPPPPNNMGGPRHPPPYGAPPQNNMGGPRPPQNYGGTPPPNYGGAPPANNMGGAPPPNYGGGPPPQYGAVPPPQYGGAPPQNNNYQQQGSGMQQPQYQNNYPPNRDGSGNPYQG

[3] = biological target: T3, LPA66-BFP;MBP-GFP-MORF8 (diffuse) (Arabidopsis thaliana;Arabidopsis …, UniProt Q9FI80;Q9LKA5 35-515;1-395, |); assay: EMSA
T3 sequence 1: T1 sequence
T3 sequence 2: T2 sequence

Measured: binding result

B1: psbF RNA probe (ssRNA)
RNA: UAGCUGUACCUACCGUUUCUUUU
binds: all assays above
